This note sets out measurements from patent publication US20220396624A1 (HC BIOPHARMA SHANGHAI, published 2022).

In general, EC50 refers to the concentration giving half of the maximal effect. Read a high EC50 as a less potent agent. Usually IC50 stands for the concentration that inhibits the measured activity by half. Low values mean inhibition by little substance, high ones a need for much substance. Broadly, the Kd is the free concentration of one partner at which half of the binding sites on the other are occupied at equilibrium, for simple one-to-one binding. By koff is commonly meant the rate constant with which the complex falls apart. A low value points to a long-lived complex.

The target of test [1] is T1, human PD-L1 on 293T-h-PDL1 cells (human, UniProt Q9NZQ7 19-238). Put plainly: FACS, purified antibody on 293T-h-PDL1 cells. Background: Flow cytometry measures light scatter and fluorescence of single cells or particles in a stream.
T1 sequence (Q9NZQ7 19-238): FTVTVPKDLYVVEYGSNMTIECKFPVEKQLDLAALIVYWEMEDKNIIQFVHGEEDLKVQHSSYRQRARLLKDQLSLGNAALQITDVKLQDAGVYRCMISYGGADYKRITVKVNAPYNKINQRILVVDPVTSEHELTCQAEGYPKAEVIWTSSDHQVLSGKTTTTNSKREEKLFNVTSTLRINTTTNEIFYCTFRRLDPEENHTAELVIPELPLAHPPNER
Description: (§1) Then 100 μl of flow cytometry buffer was added to each flow cytometry tube and resuspension was performed. […] Then 1 ml of flow cytometry buffer was added and centrifuged at 1200 rpm for 5 minutes at room temperature, the supernatant was discarded and the washing was repeated three times. 250 μl of flow cytometry buffer was added to each flow cytometry tube again, the pellet was resuspended and mixed. The resulting samples was detected by the machine.
Control tube 1 (no antibody and secondary antibody, only cell suspension was added) and control tube 2 (no antibody, only cell suspension and secondary antibody was added) were set.
Test [2] concerns the target T2, fusion protein of the extracellular region of human PD-L1 and human IgG1-FC (human, UniProt Q9NZQ7 19-238).
T2 construct: PD-L1 is put first by convention; also called fusion protein PD-L1 (hFC tag)
Put plainly: FACS blocking of PD-L1-hFc binding to 293T-h-PD1 cells, hybridoma supernatant.
Description: (§2) Each well was then washed twice by adding 400 μl FACS buffer, PE anti-human IgG Fc secondary antibody was added and incubated for 1 hour, after which each well was washed twice by adding 400 μl FACS buffer. Detection was performed.

For test [3], the target named is T3, extracellular region of human PD-L1 protein (positions 19-238 of SEQ ID NO: 3) (human, UniProt Q9NZQ7 19-238).
T3 construct: also called Human PD-L1-his; antigen PD-L1
T3 sequence (Q9NZQ7 19-238): as above
Description: ForteBio Octet (BLI), antibody immobilized, PD-L1 ECD 6.25-200 nM; culture supernatant. For orientation: In BLI a coated tip is dipped into the sample, and binding shifts an interference pattern.
Description: (§3) A 96-well plate was obtained, and 200 μl SD buffer (1×PBS+0.02% Tween20+0.1% BSA) was added to each well, the plate was placed in ForteBio Octet and pre-circulated.

Test [4] concerns the target T3, extracellular region of human PD-L1 …. Description: ForteBio Octet (BLI), antibody 20 nM, PD-L1 ECD from 30 nM in 3-fold dilutions.
Description: The murine antibody, chimeric antibody and humanized antibody of the present invention were dissolved in PBS to obtain 20 nM solutions.
The affinities of the antibody-antigen were determined using the ForteBio Octet as an affinity detection instrument.
For test [5], the target named is T1, human PD-L1 on 293T-h-PDL1 cells. Description: FACS, hybridoma culture supernatant on 293T-h-PDL1 cells.
Description: 1 ml of flow cytometry buffer was added to each flow cytometry tube and centrifuged at 1200 rpm for 5 minutes. The supernatant was discarded and the washing was repeated three times. At the same time, both control tube 1 (no culture supernatant and secondary antibody below, only the cell suspension was added) and control tube 2 (no culture supernatant, only cell suspension and secondary antibody below were added) were set.
as §1
For test [6], the target named is T3, extracellular region of human PD-L1 …. Description: ForteBio Octet (BLI), antibody immobilized, PD-L1 ECD 6.25-200 nM; antibody after purification.
Description: as §3
The antibody was immobilized and the concentration of the antibody after supernatant purification was 10 μg/ml.
For test [7], the target named is T2, fusion protein of the extracellular …. Put plainly: FACS blocking of PD-L1-hFc binding to 293T-h-PD1 cells, purified antibody.
Description: as §2

T2 sequence (Q9NZQ7 19-238): as above

B1: murine antibody 14A7 (A1) (antibody, V domains shown)
VH: QVQLKQSGAELVRPGTSVKMSCKATEYTFTNNWIAWVKQRPGHGLEWVGDIHPGGGFTNYNEKFKVKATLTADTSSSTAYMQLRSLTSEDSAIYYCAGSKTRDYDAWFAYWGQGTLVTVSA
VL: DIVMTQAPSSLAVSVGEKVTLNCKSSQSLLYTGNQKNYLAWYQQKPGQSPKLLIYWASTRESGVPDRFTGSGSGTDFTLTISNVKAEDLAVYFCQQYYTYRTFGGGTKLEIK
notes: Mouse hybridoma antibody (subclone 14A7-4), tested as culture supernatant or purified from it; Only the variable domains are printed; also called 14A7-4
On to B1, for which the values for the EC50 in test [1] and in test [5] were 0.8 µg/mL and 0.538 µg/mL, respectively. The IC50 in test [2] turned out to be 2.31 µg/mL; in test [7] it was 2.27 µg/mL. Moreover, the Kd in test [3] amounted to 0.0557 nM; in test [4] it was 0.545 nM; in test [6] it was 0.882 nM. The koff in test [3] is 2.78e-05 s⁻¹; in test [4] it was 0.000359 s⁻¹; in test [6], 0.000647 s⁻¹.
